Data reported in paper doi:10.1101/2021.05.25.445681 (bioRxiv, 2021).

Molecular target: the molecule itself
Assay: cryo-EM structure

B1: E. coli MsbA (natural protein)
chain: MHNDKDLSTWQTFRRLWPTIAPFKAGLIVAGVALILNAASDTFMLSLLKPLLDDGFGKTDRSVLVWMPLVVIGLMILRGITSYVSSYCISWVSGKVVMTMRRRLFGHMMGMPVSFFDKQSTGTLLSRITYDSEQVASSSSGALITVVREGASIIGLFIMMFYYSWQLSIILIVLAPIVSIAIRVVSKRFRNISKNMQNTMGQVTTSAEQMLKGHKEVLIFGGQEVETKRFDKVSNRMRLQGMKMVSASSISDPIIQLIASLALAFVLYAASFPSVMDSLTAGTITVVFSSMIALMRPLKSLTNVNAQFQRGMAACQTLFTILDSEQEKDEGKRVIERATGDVEFRNVTFTYPGRDVPALRNINLKIPAGKTVALVGRSGSGKSTIASLITRFYDIDEGEILMDGHDLREYTLASLRNQVALVSQNVHLFNDTVANNIAYARTEQYSREQIEEAARMAYAMDFINKMDNGLDTVIGENGVLLSGGQRQRIAIARALLRDSPILILDEATSALDTESERAIQAALDELQKNRTSLVIAHRLSTIEKADEIVVVEDGVIVERGTHNDLLEHRGVYAQLHKMQFGQ
binding result: binds
